Results: article PMC8168904, “The Trypanosoma brucei subpellicular microtubule array is organized into functionally discrete subdomains defined by microtubule associated proteins” (PLoS Pathogens, 2021)

T1: mNeonGreen-PAVE1 (Posterior And Ventral Edge protein 1), tagged at both endogenous alleles (T. brucei (endogenous locus, 427 strain), UniProt Q581X9 1-421)
T1 construct: PAVE1, Trypanosoma brucei, TriTrypDB Tb927.8.2030; expressed from the endogenous locus with an N-terminal tag; also called mNG-PAVE1; dET-mNeonGreen-PAVE1; source: endogenously tagged at both alleles, T. brucei 427 procyclic cells, in sonicated and clarified lysate; not shown: mNeonGreen, N-terminal, kept
T1 sequence (looked up): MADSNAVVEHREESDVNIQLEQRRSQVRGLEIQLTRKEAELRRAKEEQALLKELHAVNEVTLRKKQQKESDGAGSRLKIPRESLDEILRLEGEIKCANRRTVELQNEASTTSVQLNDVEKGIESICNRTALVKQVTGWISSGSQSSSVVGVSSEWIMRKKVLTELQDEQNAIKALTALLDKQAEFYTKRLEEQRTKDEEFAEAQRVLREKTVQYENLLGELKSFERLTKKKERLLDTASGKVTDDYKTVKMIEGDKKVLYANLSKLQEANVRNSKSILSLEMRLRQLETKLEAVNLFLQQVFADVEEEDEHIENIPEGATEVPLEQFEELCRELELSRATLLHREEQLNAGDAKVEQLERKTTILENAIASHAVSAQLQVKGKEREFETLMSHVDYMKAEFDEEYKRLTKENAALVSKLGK

B1: PAVE2 (Tb927.9.11540), endogenous (natural protein, T. brucei (endogenous in 427 cells), UniProt Q38DN4 1-438, looked up)
chain: MADVSADSDAQVELERLNDVIDKYTCQVEHIDNLLQELEEENNSDSVSRQIAEYQSALESHPENIPAEDALEVITRLENTLKIVQRRNHLLEKENGTQNRLLEERSNVLLNATKTFDHIVDVTGWHDKFLFDAEDLRSKVADIREMSNIEAVVQKELRVAQGIIKKKEAALRQLEELVEQGKEQEAVLNNVYNDIRVKERDCSEVEMQLVRLRKSVAKTDEALAVFDLHNQNASLAYMESDRDYLRDSVAEMKSTTRRQDNVIKAQLTRQQQLQTRLDVIMKSLREMKLDKKYERNIPKSALVPSASREEPEDVSKILPESECIPVPTYRLLHKNNEMLRVIVMRKNMLVLEKNAVIEALEAGLAKYGSALITTYKEQQDLRQNKDMELIELMDDLQQQHSNYLEKLEELRLQNAALKKKMYRSTRQHAPLKGTRPMR
notes: PAVE2, Trypanosoma brucei, TriTrypDB Tb927.9.11540, predicted MW 51 kDa; also called uncharacterized protein Tb927.9.11540; source: endogenous, T. brucei 427 lysate (mNeonGreen-PAVE1 cells)

What was measured:
[1] = biological target: Taxol-stabilized bovine microtubules labeled with Cy5 (bovine) (UniProt Q6B856); assay: not stated; (the row names no known assay)
[2] = biological target: T1, mNeonGreen-PAVE1 (Posterior And Ventral …); assay: affinity purification with mass spectrometry; mNeonGreen-PAVE1 captured from sonicated, clarified T. brucei lysate on magnetic mNeonGreen-Trap nanobody beads, 1 hr 4°C, 6 washes; on-bead tryptic digest and LC-MS/MS, and silver-stained SDS-PAGE of the eluate; WT 427 cells as control; details: partners not purified

Row | Molecule | time that pre-seeded patches remained after wash-out [1] | stoichiometry N [2]
1 | PAVE complex (mNeonGreen-PAVE1 with Strep-PAVE2) | > 20 min | –
2 | B1 | – | ~1
